{
  "source": "the nanobody polyreactivity screen of Harvey et al. (2022)",
  "data": [
    {"experiment": "yeast display, Sf9 membrane polyspecificity reagent, FACS + sequencing; frameworks hold sequencing errors", "outline": "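A nanobody's polyreactivity label depends on the gate it was sorted from. Yeast display cells were stained with 10% biotinylated, detergent-solubilized Sf9 membrane reagent for 1 hour at 4 °C, enriched on streptavidin microbeads and sorted by FACS. The low and high (top ~1%) gates were set on anti-HA fluorescence for expression and streptavidin fluorescence for reagent binding.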", "values": [
      {"sequence": "QVQLVESGGGLVQAGGSLRLSCAASGGTFVQYVMGWYRPAPGKERELVAAISASGGRTYYADSVKGRFTISRDNAKNSVYLQMNSLKPEDTAVDYCAAERKGSVTYEYDYWGQGTQVSVSS", "polyreactivity (PSR sort gate)": "high polyreactivity"},
      {"sequence": "QVQLVESGGGLVQAGGSLRLSCAASGGTFVRNTMGWSRQAPGKERELVAGITKNGGSTYYADSVKGRFTISRDNAKNTVYLQMNSLKPEVTAVYYCAIYVSWPLYYYWGQGTQVTVSS", "polyreactivity (PSR sort gate)": "low polyreactivity"},
      {"sequence": "QVQLVESGGGLVQAGGSLRLSCAASGGTFVSYAMGWYRQAPGKERELVAAITYSGGSTYYADSVKGRFTISRDNAKNTVYLQMNSLKPEDTGVYYCAAPKFSYFSYSPRGKFKYEYWGQGTQVTVSS", "polyreactivity (PSR sort gate)": "low polyreactivity"},
      {"sequence": "QVQLVESGGGLVQAGGSLRLSCAASGGTFWDYAMGWYRQAPGKERELVAAITYGTASTDYADSVKGRFTISRDNAKNTVYLQMNSLKPEDTAVYYCAARWNQYPYSYSTYDYWGQGTQVTVSS", "polyreactivity (PSR sort gate)": "low polyreactivity"},
      {"sequence": "QVQLVESGGGLVQAGGSLRLSCAASGGTFWSYAMGCYRQAPGKEREFVAAITTSAGRTNYADSVKGRFTISRDNAKNTVYLQMNSLKPEDTAVYYCAARSAYPGLGYGFDYWGQGTQVTVSS", "polyreactivity (PSR sort gate)": "low polyreactivity"},
      {"sequence": "QVQLVESGGGLVQAGGSLRLSCAASGGTFYANAMGWYRQAPGKERELVATITSSSGSTSYADSVKGRFTISRDNAKNTVYLQMNSLKPEDTAVYYCAKDSHAQGPYRYKHYHHTGDYWGQGTQVTVSS", "polyreactivity (PSR sort gate)": "low polyreactivity"},
      {"sequence": "QVQLVESGGGLVQAGGSLRLSCAASGGTFYDNDMGWYRQAPGKERELVATITYSGTSTYYADSVKGRFTISRDNAKNTVYLELNSLKTEDTAVYYCATDVLLYFEPVNLDYWGEGTQVTVSS", "polyreactivity (PSR sort gate)": "low polyreactivity"},
      {"sequence": "QVQLVESGGGLVQAGGSLRLSCAASGGTFYGYAMGWYRQAPGKERELVAAINYRGGRTYYADSVKGRFTISRDNAKNTVYLQMNSLKPEDTAVYDCAATSDRLDGYDYWGQGTQVTVSS", "polyreactivity (PSR sort gate)": "high polyreactivity"},
      {"sequence": "QVQLVESGGGLVQAGGSLRLSCAASGGTFYIYVMGWYIQAPGKERELVAAITSGDSTNYADSVKGRFTISRDNAKNTVYLQMNSLKPEDTAVYYCATGYWELRYDYWGQGTQVTVSS", "polyreactivity (PSR sort gate)": "low polyreactivity"},
      {"sequence": "QVQLVESGGGLVQAGGSLRLSCAASGGTFYRYAMGWYRQAPGKERELVAAISSNGGSTYYADSVKGRFTISRDNAKNTVYLQMNSLKPEDTAVYYCAAARDSIVYGQYDYWGQGTQVTVSS", "polyreactivity (PSR sort gate)": "low polyreactivity"},
      {"sequence": "QVQLVESGGGLVQAGGSLRLSCAASGGTFYRYAMGWYRQAPGKERELVAAISSSGGSTYYADSVKGRFTISRNNAKNTVYLQMNSLKPEDTAVYYCAAYSFQSHNFDYWGQGTQVTVSS", "polyreactivity (PSR sort gate)": "high polyreactivity"},
      {"sequence": "QVQLVESGGGLVQAGGSLRLSCAASGGTFYRYAMGWYRQAPGKERELVAAITDSGGSTYYADSVKGRFTISRDNAKNTVYLQMNSLKPEDTAVYYCAAEDIDYTDVTSGYEYWGQGTQVTVSS", "polyreactivity (PSR sort gate)": "high polyreactivity"},
      {"sequence": "QVQLVESGGGLVQAGGSLRLSCAASGGTFYSYAMGWYRQAPGKERELVAAISRRGGSTYYADSVKGRFTISRDNAKNTVYLQMNSLKPEDTAVYYCNTYIYQVRDDYWGQGTQVTVSS", "polyreactivity (PSR sort gate)": "high polyreactivity"},
      {"sequence": "QVQLVESGGGLVQAGGSLRLSCAASGGTFYTNVMGWYREAPGKERELVAAITRSGGSTHYADSVKGRFTISRDNAKNTVYLQMNSLKPEDTAVYYCAVGSPYYDGMDYWGQGTQVTVSS", "polyreactivity (PSR sort gate)": "low polyreactivity"},
      {"sequence": "QVQLVESGGGLVQAGGSLRLSCAASGGTFYTNVMGWYRQAPGKERELVAAITRSGGSTHYADSVKGRFTISRDNAKNTVYLQMNSLKPEDTAVYYCAKDRVGEMYYWGQGTQVTVSS", "polyreactivity (PSR sort gate)": "low polyreactivity"},
      {"sequence": "QVQLVESGGGLVQAGGSLRLSCAASGGTIAYAMGWYRQAPGKERELVAAISKHGGRTYYADSVKGRFTISRDNAKNTVYLQMNSLKPEDSAVYYCAADAFRGFYWGQGTQVTVSS", "polyreactivity (PSR sort gate)": "high polyreactivity"},
      {"sequence": "QVQLVESGGGLVQAGGSLRLSCAASGGTLASYAMGRYRQATGKERELVAAITRGGGSTHYADSVKGRFTISRDNAKNTVYLQMNSLKPADTAVYYCNARVRPGYGYWGQGTQVTVSS", "polyreactivity (PSR sort gate)": "high polyreactivity"},
      {"sequence": "QVQLVESGGGLVQAGGSLRLSCAASGGTLAYYAMGWYRQAPGKERELVAAITRSGGSTYYADSVKGRFTISRDNAKNTVYLQMNSLKPEDTAVYYCAALLAYCKNRWHIEYDYWGQGTQVTVSS", "polyreactivity (PSR sort gate)": "low polyreactivity"},
      {"sequence": "QVQLVESGGGLVQAGGSLRLSCAASGGTLDVYAMGWYRQAPGKEREFVAAISWSGGRTYYADSVKGRFTISRDNAKNTVYLQMHSLKPEDTAVYYCATRDRAGYYYWGQGTQVTVSS", "polyreactivity (PSR sort gate)": "high polyreactivity"},
      {"sequence": "QVQLVESGGGLVQAGGSLRLSCAASGGTLYTYAMGWYRQAPGKEWEFVAAITVSGGRTYYADSVKGRFPISRDNAKNTVYLQINSLKPEDTAVYYCAARYWSWRSFKVDYWGQGTQVTVSS", "polyreactivity (PSR sort gate)": "high polyreactivity"},
      {"sequence": "QVQLVESGGGLVQAGGSLRLSCAASGGTQVKYAMGWYRQAPGKERELVAAISRSTGNTYYADSVKGRFTISRDNAKNTVYLQMNSLKPEDTAVYYCAALKYTVGGKFGYWGQGTQVTVSS", "polyreactivity (PSR sort gate)": "high polyreactivity"},
      {"sequence": "QVQLVESGGGLVQAGGSLRLSCAASGGTRAHNAMGLYRQAPGKERELVAAISWRGGSTYYADSVKGRCTISRDNAKNTVYLQMNSLKPEDTAVYYCAKEQYVPDRPSFKNLNTYDYWGQGTQVTVSS", "polyreactivity (PSR sort gate)": "low polyreactivity"},
      {"sequence": "QVQLVESGGGLVQAGGSLRLSCAASGHIFYAYAMGWYRQAPGKERELVASITYRGVSTYYADSVKGRFTISRDNAKNTVYLQMNSLKPEDTAVYYCAAGRSRYLWFGRDFDYWGQGTQVTVSS", "polyreactivity (PSR sort gate)": "low polyreactivity"},
      {"sequence": "QVQLVESGGGLVQAGGSLRLSCAASGIFAYYAMGWYRQAPGKERELVAAISSSGGSTYYADSVKGRFTISRDNAKNTFYLQMNSLKPEDTAVYYCNVRNYYNDYYYWGQGTQVTVSS", "polyreactivity (PSR sort gate)": "high polyreactivity"},
      {"sequence": "QVQLVESGGGLVQAGGSLRLSCAASGIFDDNAMGWYRQAPGKEREFVAAITISDGTTYYADSVKGRFTISRDNAKNTVDLQMNSLKPEDTAVYYCAADATYFFVYPSVDWQPDIMGYWGQGTQVTVSS", "polyreactivity (PSR sort gate)": "low polyreactivity"},
      {"sequence": "QVQLVESGGGLVQAGGSLRLSCAASGIFDYYVMGWYRQAPGKERELVAAISKSDGSTYYADSVKGRFTISRDNAKNTVYLQMNSLKQEDTAVYYCNAKLYYNRMDYWGQGTQVTVSS", "polyreactivity (PSR sort gate)": "low polyreactivity"},
      {"sequence": "QVQLVESGGGLVQAGGSLRLSCAASGIFFHYAMGWYKQAPGKERELVAAISYSGGRTYYADSVKGRFTISRDNAKNTVYLQMNSLKPEDTAVYYCAARYYIGYGHRTYGYDYWGQGTQVTVSS", "polyreactivity (PSR sort gate)": "high polyreactivity"},
      {"sequence": "QVQLVESGGGLVQAGGSLRLSCAASGIFRKYAMGWYRQAPGTERELVAAITWGGGRTYYADSVKGRFTISRDNAKNTVYLQMNSLKPEDTAVYYCAAEYSLVPSYKVYYWGQGTQVTVSS", "polyreactivity (PSR sort gate)": "high polyreactivity"},
      {"sequence": "QVQLVESGGGLVQAGGSLRLSCAASGIFSNYAMGWYRQAPGKERELVAAIRSRSGTTYYADSVKGRFTISRDNAKNTVYLQLNSLKPEDTAVYYCDAGGKSRSYYWGQGTQVTVSS", "polyreactivity (PSR sort gate)": "high polyreactivity"},
      {"sequence": "QVQLVESGGGLVQAGGSLRLSCAASGIFSRYAMGWYRQAPGKERELVAAISSGDSTNYADSVKGRFTISRDNAKNTVYLQMNSLKPEDTAVYYCATERSHLATGQGYYYVQTFYYWGQGTQVTVSS", "polyreactivity (PSR sort gate)": "low polyreactivity"},
      {"sequence": "QVQLVESGGGLVQAGGSLRLSCAASGIFVVYAMGWYRQAPGKERELVAAISSGVSTTYADSVKGRFTISRDNAKNTVYLQMNSLKPEDTAVYYCNTLWGHQYIVPYRTREFYYWGQGTQVTVSS", "polyreactivity (PSR sort gate)": "low polyreactivity"},
      {"sequence": "QVQLVESGGGLVQAGGSLRLSCAASGIFWANGMGWYRQAPGKEREWVAAITSGGSTNYADSVKGRFTISRDNAKNTVYLQMNSLKPEDTAVYYCNKPWYSYRYGGVGYGYWGQGTQVTVSS", "polyreactivity (PSR sort gate)": "low polyreactivity"},
      {"sequence": "QVQLVESGGGLVQAGGSLRLSCAASGIFYRYAMGWYRQAPGKEREFVAAISSTGGSTYYADSVKGRFTISRDNAKNSVYLQMNSLKPEDTAVYYCAKRGSRSGRSDYWGQGTQVTVSS", "polyreactivity (PSR sort gate)": "low polyreactivity"},
      {"sequence": "QVQLVESGGGLVQAGGSLRLSCAASGIGCYRQAPGKERELVAAINWSGGNTYYADSVKGRFTISRDNAKNTVYLQMNSLKPEDTAVYYCNAVVWVEVPGDYWGQGTQVTVSS", "polyreactivity (PSR sort gate)": "low polyreactivity"},
      {"sequence": "QVQLVESGGGLVQAGGSLRLSCAASGIICGDNALGLYRQAPGKEWELVAAISSSGTSTNYADSVKGRFTISRDNAKNTVYLQMNSLKPEETAVYYCAKDVLPPYPQSRSGGDYWGQGTQVTVSS", "polyreactivity (PSR sort gate)": "low polyreactivity"},
      {"sequence": "QVQLVESGGGLVQAGGSLRLSCAASGIIFAANAMGWYRQAPGKERELVAAISKNGGITYYADSVKGRFTISRDTAKNTVYLQMNSLKPEDTAVYYCAARWRQTRRYYYWGQGTQVTVSS", "polyreactivity (PSR sort gate)": "high polyreactivity"},
      {"sequence": "QVQLVESGGGLVQAGGSLRLSCAASGIIFAAYVMGWYRQAPGKERELVAAISKSGGRTYYADSVKGRFTISRDNAKNTVYLQMNSLKPEDTAVYYCATDVRVGHIRDYDYWGQGTQVTVSS", "polyreactivity (PSR sort gate)": "high polyreactivity"},
      {"sequence": "QVQLVESGGGLVQAGGSLRLSCAASGIIFAFYAMGWYRQAPGKERELVAAISIDGSTYYADSVKGRFTISRDNAKNTVYLQMNSLKPEDTAVYYCAAEGNGYLVSTWWVRYEYWGQGTQVTVSS", "polyreactivity (PSR sort gate)": "low polyreactivity"},
      {"sequence": "QVQLVESGGGLVQAGGSLRLSCAASGIIFAHNAMGWYRQAPGKERELVAAISKRGGSTYYADSVKGRFTISRDNAKNTVYLQMNSLKPEDTAVYYCNKYSSYSFTYDSWGQGTQVTVSS", "polyreactivity (PSR sort gate)": "high polyreactivity"},
      {"sequence": "QVQLVESGGGLVQAGGSLRLSCAASGIIFAKYAMGWYRQAPGKERELVAAISRSGGSTYYADSVKGRFTISRDNAKNTVYLQMNSLKPEDTAVYYCAAAYYRDGGDFDYWGQGTQVTVSS", "polyreactivity (PSR sort gate)": "high polyreactivity"},
      {"sequence": "QVQLVESGGGLVQAGGSLRLSCAASGIIFAQYAMGWYRQAPGKERELVAAISWSGGSTYYADSVKGRFTISRDNAKNTVYLQMNSLKPEDTAVYYCAADGYYGYYSQYEYLYYYWGQGTQVTVSS", "polyreactivity (PSR sort gate)": "high polyreactivity"},
      {"sequence": "QVQLVESGGGLVQAGGSLRLSCAASGIIFARNTMGWYRQAPGKERELVAAITSSGGNTYYADSVKGRFTISRDNAKNTVYLQKNSLKPEDTAVYYCAAYSRTLYPDRYYWGQGTQVTVSS", "polyreactivity (PSR sort gate)": "high polyreactivity"},
      {"sequence": "QVQLVESGGGLVQAGGSLRLSCAASGIIFARYAMGWYRQAPGKERELVAAITSGGGTSYADSVKGRFTISRDNAKNTVYLQMNSLKPEDTAVYYCNADGYLAERFVIRLDEYRDYDYWGQGTQVTVSS", "polyreactivity (PSR sort gate)": "low polyreactivity"}
    ]}
  ]
}
